Tests used:
Experiment in all cases: yeast two-hybrid
[1] = target: glyceraldehyde-3-phosphate dehydrogenase (GAPDH) amino acids 2-190 (yeast; human, UniProt P04386 768-881; P04406 2-190)
Excerpt: (§1) The principles and methods of the yeast two-hybrid systems have been described in detail (Bartel and Fields, 1997). The following is thus a description of the particular procedure that was used, which was applied to all proteins.
(§2) The cDNA encoding the bait protein was generated by PCR from brain cDNA. Gene-specific primers were synthesized with appropriate tails added at their 5′ ends to allow recombination into the vector pGBTQ. The tail for the forward primer was 5′-[…]-3′ (SEQ ID NO: 1) and the tail for the reverse primer was 5′-[…]-3′ (SEQ ID NO:2). […] The new construct was selected directly in the yeast J693 for its ability to drive tryptophane synthesis (genotype of this strain: Mat α, ade2, his3, leu2, trp1, URA3::GAL1-lacZ LYS2::GAL1-HIS3 gal4del gal80del cyhR2). In these yeast cells, the bait is produced as a C-terminal fusion protein with the DNA binding domain of the transcription factor Gal4 (amino acids 1 to 147). A total human brain (person) cDNA library cloned into the yeast expression vector pACT2 was purchased from Clontech (human brain […] cDNA, cat. # HL4004AH), transformed into the yeast strain J692 (genotype of this strain: Mat α, ade2, his3, leu2, trp1, URA3::GAL1-lacZ LYS2::GAL1-HIS3 gal4del gal80del cyhR2), and selected for the ability to drive leucine synthesis. In these yeast cells, each cDNA is expressed as a fusion protein with the transcription activation domain of the transcription factor Gal4 (amino acids 768 to 881) and a 9 amino acid hemagglutinin epitope tag. J693 cells […] expressing the bait were then mated with J692 cells […] expressing proteins from the brain library. The resulting diploid yeast cells expressing proteins interacting with the bait protein were selected for the ability to synthesize tryptophane, leucine, histidine, and β-galactosidase.

[2] = target: T1, mixed lineage kinase 2 (MLK2) amino acids 305-549 (yeast; human, UniProt P04386 768-881; Q02779 305-549)
T1 construct: also called MST; MAP3K10
Excerpt: as §1, §2

[3] = target: T2, Focal adhesion kinase 2 (FAK2) amino acids 673-866 (yeast, UniProt P04386 1-147; Q14289 673-866)
T2 construct: also called PYK2; CAKβ
Excerpt: as §1, §2

[4] = target: phosphodiesterase 9A (PDE-9A) amino acids 269-593 (yeast; human, UniProt P04386 768-881; O76083 269-593)
Excerpt: as §1, §2

[5] = target: T3, neuroendocrine protein Discs Large 3 (NE-dlg, DLG3) amino acids 94-506 (yeast; human, UniProt P04386 768-881; Q92796 94-506)
T3 construct: also called SAP102
T3 sequence (looked up): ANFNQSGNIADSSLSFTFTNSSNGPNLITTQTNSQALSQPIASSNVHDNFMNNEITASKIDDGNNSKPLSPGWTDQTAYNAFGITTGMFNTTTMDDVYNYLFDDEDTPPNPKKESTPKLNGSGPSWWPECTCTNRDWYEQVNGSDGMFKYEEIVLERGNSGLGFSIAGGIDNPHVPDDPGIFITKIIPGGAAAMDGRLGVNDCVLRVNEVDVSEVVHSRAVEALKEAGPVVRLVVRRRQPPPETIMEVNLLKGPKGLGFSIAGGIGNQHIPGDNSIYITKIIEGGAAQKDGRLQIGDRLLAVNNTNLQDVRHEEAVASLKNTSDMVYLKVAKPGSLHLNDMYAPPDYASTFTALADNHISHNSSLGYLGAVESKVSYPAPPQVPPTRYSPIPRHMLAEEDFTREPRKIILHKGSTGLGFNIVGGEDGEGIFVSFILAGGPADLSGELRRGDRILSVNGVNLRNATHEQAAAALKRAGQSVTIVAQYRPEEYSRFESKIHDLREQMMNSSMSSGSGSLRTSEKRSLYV
Excerpt: as §1, §2

[6] = target: T4, transcription factor HTF4A amino acids 296-494 (yeast; human, UniProt P04386 768-881; Q99081 296-494)
T4 sequence (looked up): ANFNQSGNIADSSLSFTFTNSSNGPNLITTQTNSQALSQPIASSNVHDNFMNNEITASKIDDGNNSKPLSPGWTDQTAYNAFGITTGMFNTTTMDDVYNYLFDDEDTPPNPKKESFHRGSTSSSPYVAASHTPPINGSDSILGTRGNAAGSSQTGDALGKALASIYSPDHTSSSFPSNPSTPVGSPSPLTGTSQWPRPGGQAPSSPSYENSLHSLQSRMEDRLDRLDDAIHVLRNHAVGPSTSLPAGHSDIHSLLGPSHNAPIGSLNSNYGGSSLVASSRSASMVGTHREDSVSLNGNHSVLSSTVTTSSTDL
Excerpt: as §1, §2

B1: Presenilin 2 (PS2) amino acids 1-97 (other, UniProt P04386 1-147, looked up)
chain: MKLLSSIEQACDICRLKKLKCSKEKPKCAKCLKNNWECRYSPKTKRSPLTRAHLTEVESRLERLEQLFLLIFPREDLDMILKMDSLQDIKALLTGLFVQDNVNKDAVTDRLASVETDMPLTLRQHRISATSSSEESSNKGQRQLTVSMLTFMASDSEEEVCDERTSLMSAESPTPRSCQEGRQGPEDGENTAQWRSQENEEDGEEDPDRYVCSGVPGRPPGLEEELTLKYGAKHVIMLFVPVTL
notes: also called Presinilin 2
binding result [1]: binds

B2: CIB amino acids 1-191 (other, UniProt P04386 1-147, looked up)
chain: MKLLSSIEQACDICRLKKLKCSKEKPKCAKCLKNNWECRYSPKTKRSPLTRAHLTEVESRLERLEQLFLLIFPREDLDMILKMDSLQDIKALLTGLFVQDNVNKDAVTDRLASVETDMPLTLRQHRISATSSSEESSNKGQRQLTVSMGGSGSRLSKELLAEYQDLTFLTKQEILLAHRRFCELLPQEQRSVESSLRAQVPFEQILSLPELKANPFKERICRVFSTSPAKDSLSFEDFLDLLSVFSDTATPDIKSHYAFRIFDFDDDGTLNREDLSRLVNCLTGEGEDTRLSASEMKQLIDNILEESDIDRDGTINLSEFQHVISRSPDFASSFKIVL
binding result [2]: binds

B3: SUR1, type-1 sulfonylurea receptor, amino acids 121-270 (other, yeast;human, UniProt P04386 768-881, looked up, not shown: small tags and cut ends)
chain: ANFNQSGNIADSSLSFTFTNSSNGPNLITTQTNSQALSQPIASSNVHDNFMNNEITASKIDDGNNSKPLSPGWTDQTAYNAFGITTGMFNTTTMDDVYNYLFDDEDTPPNPKKEVVYYHNIETSNFPKLLIALLVYWTLAFITKTIKFVKFLDHAIGFSQLRFCLTGLLVILYGMLLLVEVNVIRVRRYIFFKTPREVKPPEDLQDLGVRFLQPFVNLLSKGTYWWMNAFIKTAHKKPIDLRAIGKLPIAMRALTNYQRLCEAF
binding result [3]: binds

B4: Mint2 amino acids 1-210 (other, UniProt P04386 1-147, looked up)
chain: MKLLSSIEQACDICRLKKLKCSKEKPKCAKCLKNNWECRYSPKTKRSPLTRAHLTEVESRLERLEQLFLLIFPREDLDMILKMDSLQDIKALLTGLFVQDNVNKDAVTDRLASVETDMPLTLRQHRISATSSSEESSNKGQRQLTVSMAHRKLESVGSGMLDHRVRPGPVPHSQEPESEDMELPLEGYVPEGLELAALRPESPAPEEQECHNHSPDGDSSSDYVNNTSEEEDYDEGLPEEEEGITYYIRYCPEDDSYLEGMDCNGEEYLAHSAHPVDTDECQEAVEEWTDSAGPHPHGHEAEGSQDYPDGQLPIPEDEPSVLEAHDQEEDGHYCASKEGYQDYYPEEANGNTGASPY
notes: also called X11 beta
binding result [4]: binds

B5: bcr (break point cluster) amino acids 1206-1271, C-terminal bait (other, UniProt P04386 1-147, looked up)
chain: MKLLSSIEQACDICRLKKLKCSKEKPKCAKCLKNNWECRYSPKTKRSPLTRAHLTEVESRLERLEQLFLLIFPREDLDMILKMDSLQDIKALLTGLFVQDNVNKDAVTDRLASVETDMPLTLRQHRISATSSSEESSNKGQRQLTVSVFGPTLLRPSEKESKLPANPSQPITMTDSWSLEVMSQVQVLLYFLQLEAIPAPDSKRQSILFSTEV
binding result [5]: binds
binding result [6]: binds

Source: patent US20020115606A1 (MYRIAD GENETICS, published 2002)
